The text below walks through data of article PMC3892784 (mBio, 2013).

The labels stand for the following.
B3: FrgC (domain or fragment, UniProt Q9RF09 1-466, looked up)
chain: MNESLRGTVLLVDDDPAVAKVLGALLTQAGLTTHAARDGQEALALLASKPVDVVVSDVRMPGMDGLQVLAEVARGWPDVPVILLTAHGTVPLAVEAMKAGAADFVLKPFDREEILFTVRKALLRAQG
B4: NtrC1189 (domain or fragment, UniProt Q1DD25 1-450, looked up)
chain: MKPGPRILIVDDDSGVLRALRGLLSDEGFTPVEARSAAEASQLLDAPEGPPAMMLLDLRMPGETGLELLARLPRPFPAPVVVLSGEASPAEAVQALRLGATDFVEKPPSPERLLTAVRNALALGS
B5: T. maritima RR468 (natural protein, UniProt Q9WYT9 1-122, looked up)
chain: MSKKVLLVDDSAVLRKIVSFNLKKEGYEVIEAENGQIALEKLSEFTPDLIVLDIMMPVMDGFTVLKKLQEKEEWKRIPVIVLTAKGGEEDESLALSLGARKVMRKPFSPSQFIEEVKHLLNE

The target in assay [1] is CrdS6 (Myxococcus xanthus (strain DZ2 genomic DNA)). Description: other fluorescence titration.
For assay [2] the target is unchanged. The experiment in a line: ITC.
In assay [3] the target is FrgB (Myxococcus xanthus (strain DZ2 genomic DNA)) (UniProt Q9RF10). The experiment in a line: ITC. In general terms: ITC needs no label: the signal is the heat of the interaction.
For assay [4], the target named is T. maritima HK853 (T. maritima) (UniProt Q9WZV7). Description: ITC.
In assay [5] the target is T1, CrdA (Myxococcus xanthus (strain DZ2 genomic …, UniProt Q84I63 1-498)).
T1 sequence (looked up): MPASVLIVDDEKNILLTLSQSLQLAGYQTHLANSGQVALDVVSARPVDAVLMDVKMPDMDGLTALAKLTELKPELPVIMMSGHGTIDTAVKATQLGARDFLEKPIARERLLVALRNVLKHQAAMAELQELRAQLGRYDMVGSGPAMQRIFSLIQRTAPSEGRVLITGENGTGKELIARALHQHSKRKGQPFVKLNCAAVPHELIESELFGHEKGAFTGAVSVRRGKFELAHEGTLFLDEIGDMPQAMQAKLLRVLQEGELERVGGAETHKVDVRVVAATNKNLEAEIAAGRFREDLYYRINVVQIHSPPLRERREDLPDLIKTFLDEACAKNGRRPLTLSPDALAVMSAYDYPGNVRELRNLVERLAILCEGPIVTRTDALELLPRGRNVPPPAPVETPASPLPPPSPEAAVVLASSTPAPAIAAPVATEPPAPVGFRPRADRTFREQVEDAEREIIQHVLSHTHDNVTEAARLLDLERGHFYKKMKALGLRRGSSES
Description: other fluorescence titration.

Assay [6] deals with T1, CrdA. The experiment in a line: ITC.
The target of the assay “FrgC” is B3. The experiment in a line: ITC.
For the assay “NtrC1189”, the target named is B4. Description: ITC.
The assay “T. maritima RR468” has as its target B5. Description: ITC.
The next assay concerns the target T2, FrgB (Myxococcus xanthus (strain DZ2 genomic …, UniProt Q9RF10 1-510)).
T2 sequence (looked up): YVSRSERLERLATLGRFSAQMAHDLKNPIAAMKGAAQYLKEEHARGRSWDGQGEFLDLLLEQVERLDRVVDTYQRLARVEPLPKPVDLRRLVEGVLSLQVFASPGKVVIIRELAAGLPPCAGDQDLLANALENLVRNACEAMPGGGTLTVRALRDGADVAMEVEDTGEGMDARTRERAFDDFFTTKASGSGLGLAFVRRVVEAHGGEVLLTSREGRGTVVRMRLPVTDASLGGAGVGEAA
The experiment in a line: ITC.

The target in another assay is T3, HK1190 (Myxococcus xanthus (strain DZ2 genomic …, UniProt Q1DD24 1-424)).
T3 sequence (looked up): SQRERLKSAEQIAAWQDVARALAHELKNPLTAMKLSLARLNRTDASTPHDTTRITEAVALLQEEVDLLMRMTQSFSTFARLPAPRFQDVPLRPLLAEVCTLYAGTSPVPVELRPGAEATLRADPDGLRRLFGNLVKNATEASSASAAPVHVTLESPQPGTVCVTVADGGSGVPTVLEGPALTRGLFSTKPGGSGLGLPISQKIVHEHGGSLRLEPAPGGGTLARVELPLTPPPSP
The experiment in a line: ITC.

For the next assay, the target named is T4, T. maritima HK853 (T. maritima, UniProt Q9WZV7 232-489).
T4 sequence (looked up): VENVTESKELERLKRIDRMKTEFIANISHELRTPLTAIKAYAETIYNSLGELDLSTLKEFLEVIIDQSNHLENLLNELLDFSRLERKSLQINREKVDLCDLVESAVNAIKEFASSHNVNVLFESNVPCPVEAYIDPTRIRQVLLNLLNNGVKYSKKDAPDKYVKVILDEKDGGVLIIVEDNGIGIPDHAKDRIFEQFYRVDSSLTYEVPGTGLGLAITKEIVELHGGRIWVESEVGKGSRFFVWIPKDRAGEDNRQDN
The experiment in a line: ITC.

A value given as a limit tells only on which side of the number the result lay.

Regarding “CrdA (from UniProt Q84I63 1-498) (domain or fragment)”, the Kd (in general, the equilibrium constant for the complex coming apart) in [1] was > 200 µM; in assay [2], > 75 µM; in assay [3], > 75 µM; in assay [4], > 75 µM.

B1: CrdS (domain or fragment)
chain: RLMASERIAAWQEVARRLAHEIKNPLTPIRMSLETLQAAQEAKHPRFQDMFKESAGVVLEEVDRLRRIVDEFSHFARMPKPQLAPVDLGELAQSVLALYATPPTGIQILPTLQTGVVARVDRDQLTQVLVNLVKNAEEAMASTGGTLRVRVRSTEADAIVEVEDSGPGIPLEHRARIFEPYFTTKDGGTGLGLAIASRILQEHGGKLEVGGEPGHGARFSLVLPRAA
Turning to B1, the Kd with CrdA [5] is 2.28 ± 0.66 µM; with CrdA [6], 1.41 µM; with FrgC it was > 75 µM; with NtrC1189, > 75 µM; with T. maritima RR468, > 75 µM.

B2: CrdS6 (domain or fragment)
chain: RLMASERIAAWQEVARRLAHEIKNPLTAIRLSLARLQAAQEAKHPRFQDMFKESAGVVLEEVDRLRRIVDEFSHFARMPKPQLAPVDLGELAQSVLALYATPPTGIQILPTLQTGVVARVDRDQLTQVLVNLVKNAEEAMASTGGTLRVRVRSTEADAIVEVEDSGPGIPLEHRARIFEPYFTTKDGGTGLGLAIASRILQEHGGKLEVGGEPGHGARFSLVLPRAA
Take B2: the Kd in the assay with NtrC1189 was 2.09 µM.
As for B3, the Kd with FrgB was 1.23 µM; in the assay with HK1190, > 35 µM; with T. maritima HK853, > 55 µM.
In the case of B4, the values for the Kd with FrgB, in the assay with HK1190 and in the assay with T. maritima HK853 were > 75 µM, 1.23 µM and > 55 µM, respectively.
Take B5: the Kd in the assay with FrgB was > 75 µM; with HK1190, > 55 µM; in the assay with T. maritima HK853, 1.16 µM.
